Assay results reported in patent publication US20190142971A1, “FORMULATION AND DELIVERY OF MODIFIED NUCLEOSIDE, NUCLEOTIDE, AND NUCLEIC ACID COMPOSITIONS” (ModernaTX, Inc., priority 2013, published 2019).

Key:
[1] = system: non-human primates (cynomolgus monkey); assay: Example 22: NHP hematology: neutrophils, reticulocytes, HGB, HCT, RBC (Tables 40-44); assay type: in vivo
Protocol: (§1) LNP formulations, shown in Table 33 (above), were administered to non-human primates (NHP) (cynomolgus monkey) (n=2) as intravenous injection (IV). The NHP were administered a single modified mRNA IV dose of 0.5 mg/kg, 0.05 mg/kg or 0.005 mg/kg of G-CSF or EPO in a dose volume of 0.5 mL/kg. The NHPs were bled before dosing with the modified mRNA LNP formulations to determine protein expression in the serum and a baseline complete blood count. After administration with the G-CSF modified mRNA formulation the NHP were bled at 8, 24, 48 and 72 hours to determined protein expression. After administration with the EPO modified mRNA formulation the NHP were bled at 8, 24, 48, 72 hours and 7 days to determined protein expression.
Samples collected from the NHPs after they were administered with G-CSF or EPO modified mRNA formulations were analyzed by ELISA to determine protein expression. Neutrophil and reticulocyte count was also determined pre-dose, 24 hours, 3 days, 7 days, 14 days and 18 days after administration of the modified G-CSF or EPO formulation.

[2] = system: non-human primates (cynomolgus monkey); assay: Example 22: NHP cytokine interferon-alpha (Table 47); assay type: in vivo
Protocol: as §1

[3] = 0.005 mg/kg, 14/18 days, Female NHP
[4] = 0.005 mg/kg, 14/18 days, Male NHP
[5] = 0.005 mg/kg, 24 hours, Female NHP
[6] = 0.005 mg/kg, 24 hours, Male NHP
[7] = 0.005 mg/kg, 3 days, Female NHP
[8] = 0.005 mg/kg, 7 days, Female NHP
[9] = 0.005 mg/kg, Pre-dose, Female NHP
[10] = 0.005 mg/kg, Pre-dose, Male NHP
[11] = 0.05 mg/kg, 14/18 days, Female NHP
[12] = 0.05 mg/kg, 14/18 days, Male NHP
[13] = 0.05 mg/kg, 24 hours, Female NHP
[14] = 0.05 mg/kg, Pre-dose, Female NHP
[15] = 0.5 mg/kg, 14/18 days, Female NHP
[16] = 0.5 mg/kg, 14/18 days, Male NHP
[17] = 0.5 mg/kg, 24 hours, Female NHP
[18] = 0.5 mg/kg, Pre-dose, Female NHP

B1: G-CSF: modified mRNA encoding human G-CSF, SEQ ID NO: 4, Cap1, fully modified with 5-methylcytosine and pseudouridine; LNP-formulated in Examples 16-22 (nucleic acid)
chain: GGGAAAUAAGAGAGAAAAGAAGAGUAAGAAGAAAUAUAAGAGCCACCAUGGCCGGUCCCGCGACCCAAAGCCCCAUGAAACUUAUGGCCCUGCAGUUGCUGCUUUGGCACUCGGCCCUCUGGACAGUCCAAGAAGCGACUCCUCUCGGACCUGCCUCAUCGUUGCCGCAGUCAUUCCUUUUGAAGUGUCUGGAGCAGGUGCGAAAGAUUCAGGGCGAUGGAGCCGCACUCCAAGAGAAGCUCUGCGCGACAUACAAACUUUGCCAUCCCGAGGAGCUCGUACUGCUCGGGCACAGCUUGGGGAUUCCCUGGGCUCCUCUCUCGUCCUGUCCGUCGCAGGCUUUGCAGUUGGCAGGGUGCCUUUCCCAGCUCCACUCCGGUUUGUUCUUGUAUCAGGGACUGCUGCAAGCCCUUGAGGGAAUCUCGCCAGAAUUGGGCCCGACGCUGGACACGUUGCAGCUCGACGUGGCGGAUUUCGCAACAACCAUCUGGCAGCAGAUGGAGGAACUGGGGAUGGCACCCGCGCUGCAGCCCACGCAGGGGGCAAUGCCGGCCUUUGCGUCCGCGUUUCAGCGCAGGGCGGGUGGAGUCCUCGUAGCGAGCCACCUUCAAUCAUUUUUGGAAGUCUCGUACCGGGUGCUGAGACAUCUUGCGCAGCCGUGAAGCGCUGCCUUCUGCGGGGCUUGCCUUCUGGCCAUGCCCUUCUUCUCUCCCUUGCACCUGUACCUCUUGGUCUUUGAAUAAAGCCUGAGUAGGAAG
modifications: Cap1, 5-methylcytosine, pseudouridine
[1]; 0.005 mg/kg IV, 14/18 days
  Female NHP HGB: 129 g/L
  Female NHP Neutrophils: 2.28 10^9/L
  Male NHP HGB: 118 g/L
  Male NHP Neutrophils: 4.31 10^9/L
[1]; 0.005 mg/kg IV, 24 hours
  Female NHP HGB: 127 g/L
  Female NHP Neutrophils: 8.6 10^9/L
  Male NHP HGB: 117 g/L
  Male NHP Neutrophils: 16.44 10^9/L
[1]; 0.005 mg/kg IV, 3 days
  Female NHP HGB: 127 g/L
  Female NHP Neutrophils: 1.78 10^9/L
  Male NHP HGB: 116 g/L
  Male NHP Neutrophils: 3.74 10^9/L
[1]; 0.005 mg/kg IV, 7 days
  Female NHP HGB: 129 g/L
  Female NHP Neutrophils: 2.27 10^9/L
  Male NHP HGB: 116 g/L
  Male NHP Neutrophils: 7.28 10^9/L
[1]; 0.005 mg/kg IV, Pre-dose
  Female NHP HGB: 129 g/L
  Female NHP Neutrophils: 2.54 10^9/L
  Male NHP HGB: 128 g/L
  Male NHP Neutrophils: 1.52 10^9/L
[1]; [3]
  HCT: 0.42 L/L
  RBC: 5.34 10^12/L
[1]; [4]
  HCT: 0.41 L/L
  RBC: 5.37 10^12/L
[1]; [5]
  HCT: 0.42 L/L
  RBC: 5.35 10^12/L
[1]; [6]
  HCT: 0.4 L/L
  RBC: 5.34 10^12/L
[1]; [7]
  HCT: 0.41 L/L
  RBC: 5.24 10^12/L
[1]; 0.005 mg/kg, 3 days, Male NHP
  HCT: 0.4 L/L
  RBC: 5.32 10^12/L
[1]; [8]
  HCT: 0.42 L/L
  RBC: 5.34 10^12/L
[1]; 0.005 mg/kg, 7 days, Male NHP
  HCT: 0.39 L/L
  RBC: 5.25 10^12/L
[1]; [9]
  HCT: 0.42 L/L
  RBC: 5.36 10^12/L
[1]; [10]
  HCT: 0.42 L/L
  RBC: 5.67 10^12/L
[1]; 0.05 mg/kg IV, 14/18 days
  Female NHP HGB: 123 g/L
  Female NHP Neutrophils: 1.82 10^9/L
  Male NHP HGB: 134 g/L
  Male NHP Neutrophils: 3.59 10^9/L
[1]; 0.05 mg/kg IV, 24 hours
  Female NHP HGB: 117 g/L
  Female NHP Neutrophils: 29.91 10^9/L
  Male NHP HGB: 122 g/L
  Male NHP Neutrophils: 19.92 10^9/L
[1]; 0.05 mg/kg IV, 3 days
  Female NHP HGB: 115 g/L
  Female NHP Neutrophils: 10.77 10^9/L
  Male NHP HGB: 126 g/L
  Male NHP Neutrophils: 7.49 10^9/L
[1]; 0.05 mg/kg IV, 7 days
  Female NHP HGB: 116 g/L
  Female NHP Neutrophils: 3.8 10^9/L
  Male NHP HGB: 126 g/L
  Male NHP Neutrophils: 4.13 10^9/L
[1]; 0.05 mg/kg IV, Pre-dose
  Female NHP HGB: 129 g/L
  Female NHP Neutrophils: 3.05 10^9/L
  Male NHP HGB: 137 g/L
  Male NHP Neutrophils: 13.74 10^9/L
[1]; [11]
  HCT: 0.4 L/L
  RBC: 5.26 10^12/L
[1]; [12]
  HCT: 0.44 L/L
  RBC: 5.43 10^12/L
[1]; [13]
  HCT: 0.4 L/L
  RBC: 5.08 10^12/L
[1]; 0.05 mg/kg, 24 hours, Male NHP
  HCT: 0.39 L/L
  RBC: 4.96 10^12/L
[1]; 0.05 mg/kg, 3 days, Female NHP
  HCT: 0.39 L/L
  RBC: 5.04 10^12/L
[1]; 0.05 mg/kg, 3 days, Male NHP
  HCT: 0.41 L/L
  RBC: 5.13 10^12/L
[1]; 0.05 mg/kg, 7 days, Female NHP
  HCT: 0.4 L/L
  RBC: 5.05 10^12/L
[1]; 0.05 mg/kg, 7 days, Male NHP
  HCT: 0.42 L/L
  RBC: 5.17 10^12/L
[1]; [14]
  HCT: 0.44 L/L
  RBC: 5.64 10^12/L
[1]; 0.05 mg/kg, Pre-dose, Male NHP
  HCT: 0.44 L/L
  RBC: 5.68 10^12/L
[1]; 0.5 mg/kg IV, 14/18 days
  Female NHP HGB: 113 g/L
  Female NHP Neutrophils: 1.98 10^9/L
  Male NHP HGB: 98 g/L
  Male NHP Neutrophils: 2.58 10^9/L
[1]; 0.5 mg/kg IV, 24 hours
  Female NHP HGB: 112 g/L
  Female NHP Neutrophils: 13.96 10^9/L
  Male NHP HGB: 113 g/L
  Male NHP Neutrophils: 14.92 10^9/L
[1]; 0.5 mg/kg IV, 3 days
  Female NHP HGB: 114 g/L
  Female NHP Neutrophils: 13.7 10^9/L
  Male NHP HGB: 118 g/L
  Male NHP Neutrophils: 9.76 10^9/L
[1]; 0.5 mg/kg IV, 7 days
  Female NHP HGB: 116 g/L
  Female NHP Neutrophils: 3.81 10^9/L
  Male NHP HGB: 115 g/L
  Male NHP Neutrophils: 2.74 10^9/L
[1]; 0.5 mg/kg IV, Pre-dose
  Female NHP HGB: 129 g/L
  Female NHP Neutrophils: 1.27 10^9/L
  Male NHP HGB: 133 g/L
  Male NHP Neutrophils: 1.53 10^9/L
[1]; [15]
  HCT: 0.37 L/L
  RBC: 4.92 10^12/L
[1]; [16]
  HCT: 0.34 L/L
  RBC: 4.21 10^12/L
[1]; [17]
  HCT: 0.38 L/L
  RBC: 4.96 10^12/L
[1]; 0.5 mg/kg, 24 hours, Male NHP
  HCT: 0.37 L/L
  RBC: 4.66 10^12/L
[1]; 0.5 mg/kg, 3 days, Female NHP
  HCT: 0.38 L/L
  RBC: 4.97 10^12/L
[1]; 0.5 mg/kg, 3 days, Male NHP
  HCT: 0.39 L/L
  RBC: 4.91 10^12/L
[1]; 0.5 mg/kg, 7 days, Female NHP
  HCT: 0.38 L/L
  RBC: 5.04 10^12/L
[1]; 0.5 mg/kg, 7 days, Male NHP
  HCT: 0.39 L/L
  RBC: 4.8 10^12/L
[1]; [18]
  HCT: 0.43 L/L
  RBC: 5.57 10^12/L
[1]; 0.5 mg/kg, Pre-dose, Male NHP
  HCT: 0.46 L/L
  RBC: 5.57 10^12/L
[1]; all dose groups
  neutrophils relative to pre-dose levels: increase in neutrophils
[2]; 0.005 mg/kg, 4 days, Female NHP
  IFN-alpha: 0 pg/mL
[2]; 0.005 mg/kg, 4 days, Male NHP
  IFN-alpha: 0 pg/mL
[2]; 0.005 mg/kg, Day 1 + 8 hr, Female NHP
  IFN-alpha: 0 pg/mL
[2]; 0.005 mg/kg, Day 1 + 8 hr, Male NHP
  IFN-alpha: 0 pg/mL
[2]; [9]
  IFN-alpha: 0 pg/mL
[2]; [10]
  IFN-alpha: 0 pg/mL
[2]; 0.05 mg/kg, 4 days, Female NHP
  IFN-alpha: 0 pg/mL
[2]; 0.05 mg/kg, 4 days, Male NHP
  IFN-alpha: 0 pg/mL
[2]; 0.05 mg/kg, Day 1 + 8 hr, Female NHP
  IFN-alpha: 0 pg/mL
[2]; 0.05 mg/kg, Day 1 + 8 hr, Male NHP
  IFN-alpha: 0 pg/mL
[2]; [14]
  IFN-alpha: 0 pg/mL
[2]; 0.05 mg/kg, Pre-dose, Male NHP
  IFN-alpha: 0 pg/mL
[2]; 0.5 mg/kg, 4 days, Female NHP
  IFN-alpha: 0 pg/mL
[2]; 0.5 mg/kg, 4 days, Male NHP
  IFN-alpha: 0 pg/mL
[2]; 0.5 mg/kg, Day 1 + 8 hr, Female NHP
  IFN-alpha: 529.2 pg/mL
[2]; 0.5 mg/kg, Day 1 + 8 hr, Male NHP
  IFN-alpha: 503.8 pg/mL
[2]; [18]
  IFN-alpha: 0 pg/mL
[2]; 0.5 mg/kg, Pre-dose, Male NHP
  IFN-alpha: 0 pg/mL
